The record followed here is publication PMC4605311, “Structure of mitochondrial poly(A) RNA polymerase reveals the structural basis for dimerization, ATP selectivity and the SPAX4 disease phenotype” (Nucleic Acids Research, 2015).

Data set [1] concerns the molecule itself. As to the kind of experiment: crystal structure; hanging drop, 0.2 M NaCl, 0.1 M Bis-Tris pH 5.5, 20–23% PEG 3350; apo crystals and crystals soaked with 10 mM MgCl2 and 10 mM nucleotide; two mtPAP molecules in the asymmetric unit.
Data set [2] concerns the molecule itself. In words: SEC; Superdex-200 elution profiles of WT and mutated mtPAP proteins.

B1: chicken mitochondrial poly(A) RNA polymerase, mature wild type (residues 37–568) (enzyme, Gallus gallus, UniProt F1NBW0 37-568, looked up)
chain: AGGAEETDAEVSARKKTFTEVQTERLEQADRSVLIKCPSKLNEKKLLQYLSSHGKIDNYFFFENRGIHALIEFSEKSSVASLQAVTGIPKAAEHHVVPYKSRLFTFTLKNPGSQAAEERPVKISPQSHIPVNELIPKLCHADSISSQMYILLNEYQLTEENIKLRYLACSLVRDFARAYFPDSTVKPFGSSVNTFGKLGCDVDMFLDFHDIQKHATKMKKGPFEMEYQMKRLPSERLATQKILSIIGDCLDNFGPGYSSVQKILNARCPLVKFSHQPTGFQCDLSVSNSIAIRCSELLYIYGCLDPRVRALVFSLRCWARVHGLTNSVPGTWITNFSLTMMIMFFLQKRSPPIIPTLDQLKELADEKDKHVIGGYDCSFVSDLSKIKPTKNTETLDELLCDFFQYFGNFDFRKNSLNLRKGKEVNKPESSPLYIWNPFEQDLNISKNVNQPQLEKFVAMARESAWILQKEDKTQQMINKEPWGLAAVLIPFGKSNPNTMKSRTKGIGSETIKSLLDSLKLSDANNLQKAVGK
notes: Expression construct pNIC28-BsaI; also called mtPAP; WT mtPAP; source: E. coli KRX/pRARE2, purified (HisTrap, TEV cleavage, HiTrap Heparin)
For the protein B1, in data set [1], the stoichiometry N – broadly, a count of units in the complex or per binding partner – amounted to 2.

B2: chicken mtPAP triple mutant K76E, K80–81E (enzyme, Gallus gallus, UniProt F1NBW0 37-568, looked up)
chain: AGGAEETDAEVSARKKTFTEVQTERLEQADRSVLIKCPSELNEEELLQYLSSHGKIDNYFFFENRGIHALIEFSEKSSVASLQAVTGIPKAAEHHVVPYKSRLFTFTLKNPGSQAAEERPVKISPQSHIPVNELIPKLCHADSISSQMYILLNEYQLTEENIKLRYLACSLVRDFARAYFPDSTVKPFGSSVNTFGKLGCDVDMFLDFHDIQKHATKMKKGPFEMEYQMKRLPSERLATQKILSIIGDCLDNFGPGYSSVQKILNARCPLVKFSHQPTGFQCDLSVSNSIAIRCSELLYIYGCLDPRVRALVFSLRCWARVHGLTNSVPGTWITNFSLTMMIMFFLQKRSPPIIPTLDQLKELADEKDKHVIGGYDCSFVSDLSKIKPTKNTETLDELLCDFFQYFGNFDFRKNSLNLRKGKEVNKPESSPLYIWNPFEQDLNISKNVNQPQLEKFVAMARESAWILQKEDKTQQMINKEPWGLAAVLIPFGKSNPNTMKSRTKGIGSETIKSLLDSLKLSDANNLQKAVGK
notes: mitochondrial poly(A) polymerase (mtPAP), Gallus gallus, residues 37-568, charge-reversal triple mutant; The methods list K80–81E and K76E apart; the results call it a triple mutant
As for B2, in data set [2], the binding result was “binds”.

B3: chicken mtPAP R272E mutant (enzyme, Gallus gallus, UniProt F1NBW0 37-568, looked up)
chain: AGGAEETDAEVSARKKTFTEVQTERLEQADRSVLIKCPSKLNEKKLLQYLSSHGKIDNYFFFENRGIHALIEFSEKSSVASLQAVTGIPKAAEHHVVPYKSRLFTFTLKNPGSQAAEERPVKISPQSHIPVNELIPKLCHADSISSQMYILLNEYQLTEENIKLRYLACSLVRDFARAYFPDSTVKPFGSSVNTFGKLGCDVDMFLDFHDIQKHATKMKKGPFEMEYQMKRLPSEELATQKILSIIGDCLDNFGPGYSSVQKILNARCPLVKFSHQPTGFQCDLSVSNSIAIRCSELLYIYGCLDPRVRALVFSLRCWARVHGLTNSVPGTWITNFSLTMMIMFFLQKRSPPIIPTLDQLKELADEKDKHVIGGYDCSFVSDLSKIKPTKNTETLDELLCDFFQYFGNFDFRKNSLNLRKGKEVNKPESSPLYIWNPFEQDLNISKNVNQPQLEKFVAMARESAWILQKEDKTQQMINKEPWGLAAVLIPFGKSNPNTMKSRTKGIGSETIKSLLDSLKLSDANNLQKAVGK
notes: mitochondrial poly(A) polymerase (mtPAP), Gallus gallus, residues 37-568, R272E
For B3, in data set [2], the binding result is recorded as “binds”.

B4: chicken mtPAP N472D mutant (residues 37–568) (enzyme, Gallus gallus, UniProt F1NBW0 37-568, looked up)
chain: AGGAEETDAEVSARKKTFTEVQTERLEQADRSVLIKCPSKLNEKKLLQYLSSHGKIDNYFFFENRGIHALIEFSEKSSVASLQAVTGIPKAAEHHVVPYKSRLFTFTLKNPGSQAAEERPVKISPQSHIPVNELIPKLCHADSISSQMYILLNEYQLTEENIKLRYLACSLVRDFARAYFPDSTVKPFGSSVNTFGKLGCDVDMFLDFHDIQKHATKMKKGPFEMEYQMKRLPSERLATQKILSIIGDCLDNFGPGYSSVQKILNARCPLVKFSHQPTGFQCDLSVSNSIAIRCSELLYIYGCLDPRVRALVFSLRCWARVHGLTNSVPGTWITNFSLTMMIMFFLQKRSPPIIPTLDQLKELADEKDKHVIGGYDCSFVSDLSKIKPTKNTETLDELLCDFFQYFGNFDFRKNSLNLRKGKEVNKPESSPLYIWDPFEQDLNISKNVNQPQLEKFVAMARESAWILQKEDKTQQMINKEPWGLAAVLIPFGKSNPNTMKSRTKGIGSETIKSLLDSLKLSDANNLQKAVGK
notes: mitochondrial poly(A) polymerase (mtPAP), Gallus gallus, residues 37-568, N472D (counterpart of human N478D); Purified by the same procedure as the wild type; also called N472D mtPAP; SPAX4 N472D mtPAP mutant; source: E. coli KRX/pRARE2, purified (HisTrap, TEV cleavage, HiTrap Heparin)
Regarding B4, in data set [1], the binding result is recorded as “binds”.

B5: chicken mtPAP K112E mutant (enzyme, Gallus gallus, UniProt F1NBW0 37-568, looked up)
chain: AGGAEETDAEVSARKKTFTEVQTERLEQADRSVLIKCPSKLNEKKLLQYLSSHGKIDNYFFFENRGIHALIEFSEESSVASLQAVTGIPKAAEHHVVPYKSRLFTFTLKNPGSQAAEERPVKISPQSHIPVNELIPKLCHADSISSQMYILLNEYQLTEENIKLRYLACSLVRDFARAYFPDSTVKPFGSSVNTFGKLGCDVDMFLDFHDIQKHATKMKKGPFEMEYQMKRLPSERLATQKILSIIGDCLDNFGPGYSSVQKILNARCPLVKFSHQPTGFQCDLSVSNSIAIRCSELLYIYGCLDPRVRALVFSLRCWARVHGLTNSVPGTWITNFSLTMMIMFFLQKRSPPIIPTLDQLKELADEKDKHVIGGYDCSFVSDLSKIKPTKNTETLDELLCDFFQYFGNFDFRKNSLNLRKGKEVNKPESSPLYIWNPFEQDLNISKNVNQPQLEKFVAMARESAWILQKEDKTQQMINKEPWGLAAVLIPFGKSNPNTMKSRTKGIGSETIKSLLDSLKLSDANNLQKAVGK
notes: mitochondrial poly(A) polymerase (mtPAP), Gallus gallus, residues 37-568, K112E
As to B5, in data set [2], the binding result is “binds”.
